Source: PMC3770802 (Cytokine, 2013)

T1: IL-10R2/StFP (human, UniProt Q08334 20-325)
T1 sequence (looked up): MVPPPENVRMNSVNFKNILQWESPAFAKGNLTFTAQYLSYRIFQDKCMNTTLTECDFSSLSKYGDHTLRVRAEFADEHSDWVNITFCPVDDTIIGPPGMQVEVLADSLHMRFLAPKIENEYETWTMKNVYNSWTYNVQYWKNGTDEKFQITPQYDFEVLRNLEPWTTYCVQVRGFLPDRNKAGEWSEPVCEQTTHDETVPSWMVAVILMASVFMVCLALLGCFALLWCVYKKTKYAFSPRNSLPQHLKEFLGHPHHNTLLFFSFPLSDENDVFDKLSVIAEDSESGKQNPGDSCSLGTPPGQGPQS

T2: IFN-αR2c/ECFP (human, UniProt P48551 27-515)
T2 sequence (looked up): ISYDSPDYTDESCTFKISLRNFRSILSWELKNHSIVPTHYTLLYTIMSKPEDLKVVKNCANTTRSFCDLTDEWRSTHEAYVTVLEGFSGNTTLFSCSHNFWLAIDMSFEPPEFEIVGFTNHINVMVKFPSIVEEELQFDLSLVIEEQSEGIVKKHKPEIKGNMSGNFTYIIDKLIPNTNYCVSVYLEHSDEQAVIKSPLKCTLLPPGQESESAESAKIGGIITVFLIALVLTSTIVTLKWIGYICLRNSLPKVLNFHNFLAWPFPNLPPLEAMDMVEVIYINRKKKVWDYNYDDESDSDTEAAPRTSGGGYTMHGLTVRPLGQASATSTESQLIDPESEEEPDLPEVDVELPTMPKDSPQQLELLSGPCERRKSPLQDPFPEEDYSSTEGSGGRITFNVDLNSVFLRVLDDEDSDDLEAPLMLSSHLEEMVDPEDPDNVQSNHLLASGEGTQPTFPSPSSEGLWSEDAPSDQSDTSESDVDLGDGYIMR

B1: IFN-λR1/CiFP (receptor, human, UniProt Q8IU57 21-520, looked up)
chain: RPRLAPPQNVTLLSQNFSVYLTWLPGLGNPQDVTYFVAYQSSPTRRRWREVEECAGTKELLCSMMCLKKQDLYNKFKGRVRTVSPSSKSPWVESEYLDYLFEVEPAPPVLVLTQTEEILSANATYQLPPCMPPLDLKYEVAFWKEGAGNKTLFPVTPHGQPVQITLQPAASEHHCLSARTIYTFSVPKYSKFSKPTCFLLEVPEANWAFLVLPSLLILLLVIAAGGVIWKTLMGNPWFQRAKMPRALDFSGHTHPVATFQPSRPESVNDLFLCPQKELTRGVRPTPRVRAPATQQTRWKKDLAEDEEEEDEEDTEDGVSFQPYIEPPSFLGQEHQAPGHSEAGGVDSGRPRAPLVPSEGSSAWDSSDRSWASTVDSSWDRAGSSGYLAEKGPGQGPGGDGHQESLPPPEFSKDSGFLEELPEDNLSSWATWGTLPPEPNLVPGGPPVSLQTLTFCWESSPEEEEEARESEIEDSDAGSWGAESTQRTEDRGRTLGHYMAR
B2: IFN-αR1/EYFP (receptor, human, UniProt P17181 28-557, looked up)
chain: KNLKSPQKVEVDIIDDNFILRWNRSDESVGNVTFSFDYQKTGMDNWIKLSGCQNITSTKCNFSSLKLNVYEEIKLRIRAEKENTSSWYEVDSFTPFRKAQIGPPEVHLEAEDKAIVIHISPGTKDSVMWALDGLSFTYSLVIWKNSSGVEERIENIYSRHKIYKLSPETTYCLKVKAALLTSWKIGVYSPVHCIKTTVENELPPPENIEVSVQNQNYVLKWDYTYANMTFQVQWLHAFLKRNPGNHLYKWKQIPDCENVKTTQCVFPQNVFQKGIYLLRVQASDGNNTSFWSEEIKFDTEIQAFLLPPVFNIRSLSDSFHIYIGAPKQSGNTPVIQDYPLIYEIIFWENTSNAERKIIEKKTDVTVPNLKPLTVYCVKARAHTMDEKLNKSSVFSDAVCEKTKPGNTSKIWLIVGICIALFALPFVIYAAKVFLRCINYVFFPSLKPSSSIDEYFSEQPLKNLLLSTSEEQIEKCFIIENISTIATVEETNQTDEDHKKYSSQTSQDSGNYSNEDESESKTSEELQQDFV

Tests used:
IL-10R2/StFP = molecular target: T1, IL-10R2/StFP; test: FRET or BRET
IFN-αR2c/ECFP = molecular target: T2, IFN-αR2c/ECFP; test: FRET or BRET

Row | EC50* (relative) (IL-10R2/StFP) [pairs/cell] | EC50* (relative), rarely seen (IL-10R2/StFP) [pairs/cell] | EC50* (relative), rarely seen (IFN-αR2c/ECFP) [pairs/cell] | Binder
1 | 200 | 70 |  | B1
2 |  |  | 4 | B2
